# Experimental data reported in PMC4918310.
# Target: untagged recombinant mouse TWEAK (mouse) (UniProt O54907)
# UniProt O54907, sequence (O54907 94-249): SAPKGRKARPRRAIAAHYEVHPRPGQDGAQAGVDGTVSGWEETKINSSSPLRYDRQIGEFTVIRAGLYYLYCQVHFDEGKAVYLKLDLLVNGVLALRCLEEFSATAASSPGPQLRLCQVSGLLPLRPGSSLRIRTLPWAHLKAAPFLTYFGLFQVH
substance,measurement,value
recombinant mouse sCD163 (receptor),"TWEAK (200 ng ml^-1)-induced canonical and non-canonical NF-kB signalling in mouse endothelial cells (MDEC), immunoblotting, with increasing doses of recombinant mouse sCD163",50
